From article PMC10349087 (Nature Communications, 2023)

B1: NIV-10 Fab (Fab, V domains shown)
VH: EVQLVESGGGLVQPGGSLRLSCAASGFTFYSYWMTWVRQAPGKGLEWVANIKHDESESHYVDSVRGRFTISRDNAKNSVYLQMKGLRAEDTAVYYCARDGGYNILTAYYHAPSYWGQGTLVTVSS
VL: QSALTQPASVSGSPGQSITISCTGTSSDVGGYNFVSWYRQYPGKAPQLMIYDVSRRPSGDSDRFSGSKSGNTASLTISGLQAEDEAEYHCSSYTGRSPYVVFGGGTKVTVL
B2: NIV-13 Fab (Fab, V domains shown)
VH: EVQLLESGGGLVQPGGSLRLSCAASGFTFSRYALSWVRQAPGKGLEWVSAISGAAITTYYADSVKGRFTISRDDSRNTLFMQMDSLRAEDTAVYYCAKGDYYDSSGYLAEYFPHWGQGTLVTVSS
VL: SYELTQPPSVSVSPGQTARITCFADALPKQHAYWYQQKAGQAPVLVIFKDTERPSGIPKRFSGSRSGATVTLTISGVQAEDEADYYCQSTDISGVLFGGGTKLTVL
B3: NIV-11 Fab (Fab, V domains shown)
VH: QLVQSGPEVKKPGTSVKVSCKASGFTFYYSAVQWVRQARGQRLEWLGWMAVGSGKANYAQKFQERLTLTRDMSTSTAYMELSSLRSEDTAVYYCAAPNCTGGSCYDGFNLWGQGTVVTVSS
VL: EIVLTQSPGTLSLSPGDRAILSCRASQTVNSNYLAWYQQKPGQAPRLLIYGTSSRATGIPDRFSGSGSGTDFTLTISRLEPEDFAVYYCQQYGSSPWLFGQGTKVEIK
B4: NIV-8 Fab (Fab, V domains shown)
VH: EVQLVESGGGVVQPGRSLRLSCAASGFKFSKFAMHWVRQAPGKGPEWVAVISYDGNQYHSADSVKGRFTISRDNSFNTLYLQMNSLGPEDTAVYYCARDGPDTSGYYANIYFDFWGQGTLVTVSS
VL: QSVLTQPPSVSGAPGQRVTISCTGSSSNIGAGYDVHWYQQLPGRAPKLLIFDNNNRPSGVPDRFSGSKSGTSASLAITGLQTEDEAYYYCQSYDNSLILAVFGGGTKVTVL

Each binder was assayed against SARS-CoV-2 spike receptor-binding domain, Delta variant (amino acids 331-529), biotinylated (SARS-CoV-2, Delta, L452R | T478K, biotin (RBD expression vector co-expressed with BirA-Flag, 100 μM biotin added)) (assay: BLI). Conditions: both partners purified.
Work on B1 yielded a Kd of 0.00371 nM, a koff of 1.31e-06 s⁻¹ and a kon of 354000 M⁻¹ s⁻¹.
In the case of B2, the Kd is reported as 0.0919 nM, the koff is reported as 3.72e-05 s⁻¹ and the kon is reported as 405000 M⁻¹ s⁻¹.
With B3 the Kd was 0.00478 nM, the koff was 5.08e-07 s⁻¹ and the kon was 106000 M⁻¹ s⁻¹.
B4 gave a Kd of 0.00475 nM, a koff of 1.28e-06 s⁻¹ and a kon of 269000 M⁻¹ s⁻¹.

These binders were tested against SARS-CoV-2 spike receptor-binding domain, Omicron BA.1 variant (amino acids 331-529), biotinylated (SARS-CoV-2, Omicron BA.1, G339D | S371L | S373P | S375F | K417N | N440K | G446S | S477N | T478K | E484A | …, biotin (RBD expression vector co-expressed with BirA-Flag, 100 μM biotin added)) (assay: BLI). Conditions: both partners purified.
Work on B1 yielded a Kd of 96.6 nM, a koff of 0.0124 s⁻¹ and a kon of 129000 M⁻¹ s⁻¹.
With B2 the Kd was 0.802 nM, the koff was 0.000248 s⁻¹ and the kon was 309000 M⁻¹ s⁻¹.
Binder B3 has a Kd of 9.14 nM, a koff of 0.00335 s⁻¹ and a kon of 366000 M⁻¹ s⁻¹.
Binder B4 has a Kd of 24.7 nM, a koff of 0.00312 s⁻¹ and a kon of 126000 M⁻¹ s⁻¹.

What follows are binders tested against SARS-CoV-2 spike receptor-binding domain, Omicron BA.2 variant (amino acids 331-529), biotinylated (SARS-CoV-2 Omicron BA.2, G504D | S371F | S375F | T376A | D405N | R408S | K417N | N440K | S477N | T478K | …, biotin (RBD expression vector co-expressed with BirA-Flag, 100 μM biotin added)) (assay: BLI). Conditions: both partners purified.
In the case of B1, the Kd is reported as 76.1 nM, the koff is reported as 0.0064 s⁻¹ and the kon is reported as 84100 M⁻¹ s⁻¹.
B2 gave a Kd of 1.49 nM, a koff of 0.000369 s⁻¹ and a kon of 247000 M⁻¹ s⁻¹.
For B3, the Kd was 11 nM, the koff was 0.00355 s⁻¹ and the kon was 322000 M⁻¹ s⁻¹.
B4 was tested, and the Kd was 20 nM, the koff was 0.00206 s⁻¹ and the kon was 103000 M⁻¹ s⁻¹.
